Reference: patent US20260216242A1, “ALPP-SPECIFIC VARIANT ANTIGEN BINDING MOLECULES” (ALMAC DISCOVERY LIMITED, priority 2022, published 2026)

Assays:
[1] = target: T1, ALPP expressed on the surface of CHO cells (CHO-ALPP) (Homo sapiens, UniProt P05187); assay: Cell-surface binding by flow cytometry, CHO-ALPP; conditions: VHH proteins
T1 construct: expressed in transfected cells
Experimental: (§1) C-terminal His tagged VHH proteins were assessed for ALPP, ALPPL2, ALPI and ALPL cell-surface binding by flow cytometry. Binders encompassing different epitope bins were screened on CHO cells stably expressing ALPP, ALPPL2, ALPI or ALPL. High levels of cell-surface proteins expression were confirmed for each of the cell-lines by flow cytometry.
(§2) Cell surface binding of test agents to hALPP isoforms was characterized in four CHO-ALPP isoform stably transfected cell lines (CHO-ALPP, CHO-ALPPL2, CHO-ALPI and CHO-ALPL) and the resulting KDapp values determined. Adherent cells were detached from tissue culture flasks by incubating with 0.1% EDTA/PBS solution at 37° C. for ~10 minutes or until cells detached easily. […] Binding of VHH (His6 tagged) agents was determined by adding 100 μl of anti-x6His tag Ab (Abcam) per cell pellet sample as appropriate and incubating on ice for 30 mins. […]
(§3) VHH-hFc proteins were assessed for human ALPP, ALPPL2, ALPI and ALPL cell-surface binding by flow cytometry. […]
(§4) Cell surface binding of test agents to hALPP isoforms was characterized in four CHO-ALPP isoform transfectant cell lines (CHO-ALPP, CHO-ALPPL2, CHO-ALPI and CHO-ALPL) and the resulting KDapp values determined. […] Binding of VHH-hFc agents was determined by adding 100 μl of Fitc-anti-human Ab (ThermoFisher) and incubating for 30 mins on ice in the dark. […]

[2] = target: T2, ALPPL2 expressed on the surface of CHO cells (CHO-ALPPL2) (Homo sapiens, UniProt P10696); assay: Cell-surface binding by flow cytometry, CHO-ALPPL2; conditions: VHH His proteins
T2 construct: expressed in transfected cells
T2 sequence (P10696 20-503 limits assumed): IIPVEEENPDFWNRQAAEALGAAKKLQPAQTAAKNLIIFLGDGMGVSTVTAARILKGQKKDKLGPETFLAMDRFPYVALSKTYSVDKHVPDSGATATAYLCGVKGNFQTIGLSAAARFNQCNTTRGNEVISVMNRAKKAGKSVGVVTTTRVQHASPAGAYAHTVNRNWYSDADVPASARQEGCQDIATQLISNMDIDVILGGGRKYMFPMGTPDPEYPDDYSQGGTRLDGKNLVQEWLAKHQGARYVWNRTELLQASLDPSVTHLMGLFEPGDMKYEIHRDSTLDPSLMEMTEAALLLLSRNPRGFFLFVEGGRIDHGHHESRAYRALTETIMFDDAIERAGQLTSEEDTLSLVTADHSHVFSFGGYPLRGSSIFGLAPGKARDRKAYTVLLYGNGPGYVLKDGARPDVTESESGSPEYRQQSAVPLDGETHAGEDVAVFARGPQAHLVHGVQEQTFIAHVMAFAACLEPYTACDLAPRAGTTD
Experimental: as §1, §2, §3, §4

T1 sequence (P05187 23-506 limits assumed): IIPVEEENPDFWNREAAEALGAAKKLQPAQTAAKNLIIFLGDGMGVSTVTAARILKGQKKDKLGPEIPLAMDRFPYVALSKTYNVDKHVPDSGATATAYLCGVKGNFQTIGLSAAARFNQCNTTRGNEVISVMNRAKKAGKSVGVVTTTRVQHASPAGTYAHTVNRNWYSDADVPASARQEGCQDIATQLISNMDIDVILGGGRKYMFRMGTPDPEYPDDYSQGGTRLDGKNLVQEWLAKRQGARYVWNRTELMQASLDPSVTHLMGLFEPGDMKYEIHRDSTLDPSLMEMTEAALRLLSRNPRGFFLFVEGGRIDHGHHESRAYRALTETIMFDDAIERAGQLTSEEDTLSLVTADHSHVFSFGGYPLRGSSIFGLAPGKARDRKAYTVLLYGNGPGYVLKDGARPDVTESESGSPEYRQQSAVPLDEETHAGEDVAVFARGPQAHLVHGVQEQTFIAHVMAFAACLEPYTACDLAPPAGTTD

B1: D10: ALPP targeting VHH domain, SEQ ID NO: 28 (protein)
VHH: QVQLVESGGGLVQPGGSLRLSCAASGSIFSVNTMGWYRQAPGKQRDLVAVATSGGTIHYADSVKGRFTISRDNAKNTVYLQMNSLKPEDTAVYYCNLVVPYGMIAGDHDYWGQGTKVTVSS
With B1 the “binding preference ALPP versus ALPPL2 on CHO cells” value [1] was “preferential binding to ALPP over ALPPL2” and the “KDapp CHO-ALPPL2” value [2] was “Binding”.
